Laboratory results: paper PMC8390506, “Interaction of spindle assembly factor TPX2 with importins-α/β inhibits protein phase separation” (The Journal of Biological Chemistry, 2021)

B3: importin-α/β heterodimer (complex)
chain 1: not shown
chain 2: MELVTILEKTVSPDRNELEAAQKFLEQAAVENLPTFVVELSKVLANPANSQVARVAAGLQIKNPLTSRDPDVKAQYQQRWLAIDASARGEIKTYVLRTLGTESYRPSSASQCVAGIACAEITVNQWPQLIPQLVANVTDPNSTERMKESTLEAIGYICQDIDPEQLQHKSNEILTAIIQGMRKEEPSNNVRLAATNALLNSLEFTKANFDKESERHYIMQVVCEATQCPDTRVRVAALQNLVKIMSLYYQYMETYMGPALFAITVEAMKNEIDEVALQGIEFWSNVCDEEMDLAIEASEAAEQGRPPEHTSKFYAKGALQYLVPILTQTLTKQDENDDDDDWNPCKAAGVCLMLLATCCEDDIVPHVLPFIKEHIKNPDWRYRDAAVMAFGCILEGPESCQLKPLVIQAMPTLIELMKDPSVVVRDTTAWTVGRICELLPEAAINDVYLAPLLQCLIEGLGAEPRVASNVCWAFSSLAEAAYEAADVADDQEEPSSYCLSSSFEVIVQKLLETTDRPDGHQNNLRSAAYEALMEIVKNSAKDCYPAVQKTTLVIMERLQQVLQVESHIQSTSDRIQFNDLQSLLCATLQNVLRKVQHQDALQISDVVMASLLRMFQSTAGSGGVQEDALMAVSTLVEVLGAEFLKYMEAFKPFLTIGLKNYAEYQVCLAAVGLVGDLCRALQSNILPFCDEMMQFLLENLGNENVHRSVKPQILSVFGDVALAIGGEFKKYLDVVLNTLQQASQAQVDKSDYDMVDYLNELREGCIEAYTGIIQGLKGDQENVHPDVMLVQPRVEFILSFIDHIAGDEDHTDSVVACGAGLIGDLCTAFGKDVLKLVEARPMIHELLTEGRRSKTNKTKTLATWATKELRKLKNQA
B4: importin-β (natural protein, Xenopus laevis, UniProt P52297 1-876, looked up)
chain: MELVTILEKTVSPDRNELEAAQKFLEQAAVENLPTFVVELSKVLANPANSQVARVAAGLQIKNPLTSRDPDVKAQYQQRWLAIDASARGEIKTYVLRTLGTESYRPSSASQCVAGIACAEITVNQWPQLIPQLVANVTDPNSTERMKESTLEAIGYICQDIDPEQLQHKSNEILTAIIQGMRKEEPSNNVRLAATNALLNSLEFTKANFDKESERHYIMQVVCEATQCPDTRVRVAALQNLVKIMSLYYQYMETYMGPALFAITVEAMKNEIDEVALQGIEFWSNVCDEEMDLAIEASEAAEQGRPPEHTSKFYAKGALQYLVPILTQTLTKQDENDDDDDWNPCKAAGVCLMLLATCCEDDIVPHVLPFIKEHIKNPDWRYRDAAVMAFGCILEGPESCQLKPLVIQAMPTLIELMKDPSVVVRDTTAWTVGRICELLPEAAINDVYLAPLLQCLIEGLGAEPRVASNVCWAFSSLAEAAYEAADVADDQEEPSSYCLSSSFEVIVQKLLETTDRPDGHQNNLRSAAYEALMEIVKNSAKDCYPAVQKTTLVIMERLQQVLQVESHIQSTSDRIQFNDLQSLLCATLQNVLRKVQHQDALQISDVVMASLLRMFQSTAGSGGVQEDALMAVSTLVEVLGAEFLKYMEAFKPFLTIGLKNYAEYQVCLAAVGLVGDLCRALQSNILPFCDEMMQFLLENLGNENVHRSVKPQILSVFGDVALAIGGEFKKYLDVVLNTLQQASQAQVDKSDYDMVDYLNELREGCIEAYTGIIQGLKGDQENVHPDVMLVQPRVEFILSFIDHIAGDEDHTDSVVACGAGLIGDLCTAFGKDVLKLVEARPMIHELLTEGRRSKTNKTKTLATWATKELRKLKNQA
notes: importin-β, Xenopus laevis; Construct in the Supplemental information; The UniProt entry recalled may be a fragment; also called importin-β alone; source: recombinant, purified to >95% purity
B5: Targeting Protein for XKlp2 (TPX2), full length, wild type (natural protein, Xenopus laevis, UniProt Q6NUF4 1-716, looked up)
chain: MEDTQDTYSYDAPSIFNFSSFHEDHNADSWFDQVTNAENIPPDQRRLSETSVNTEQNSKVEPVQTTPSKDDVSNSATHVCDVKSQSKRSSRRMSKKHRQKLLVKMKDTHLEKETAPPEYPPCKKLKGSSSKGRHAPVIKSQSTSSHHSMTSPKPKAQLTMPSTPTVLKRRNVLVKAKNSEEQELEKMQELQKEMLENLKKNEHSMKVAITGAGQPVKTFIPVTKPVDFHFKTDDRLKRTANQPEGDGYKAVDFASELRKHPPSPVQVTKGGHTVPKPFNLSKGKRKHEEASDYVSTAEQVIAFYKRTPARYHLRSRQREMEGPSPVKMIKTKLTNPKTPLLQTKGRHRPVTCKSAAELEAEELEMINQYKFKAQELDTRILEGGPVLLKKPLVKEPTKAIGFDLEIEKRIQQREKKEEIEEETFTFHSRPCPSKMLTDVVGVPLKKLLPVTVPQSPAFALKNRVRIPAQEEKQEEMVPVIKATRMPHYGVPFKPKLVEQRQVDVCPFSFCDRDKERQLQKEKRLDELRKDEVPKFKAQPLPQFDNIRLPEKKVKMPTQQEPFDLEIEKRGASKLQRWQQQIQEELKQQKEMVVFKARPNTVVHQEPFVPKKENRSLTESLSGSIVQEGFELATAKRAKERQEFDKCLAETEAQKSLLEEEIRKRREEEEKEEISQLRQELVHKAKPIRKYRAVEVKASDVPLTVPRSPNFSDRFKC
notes: TPX2, Xenopus laevis, full length; 1 to 716; Named GFP-TPX2 for SEC-MALS; also called GFP-TPX2; wt-TPX2; source: recombinant, purified to >95% purity

Tests used:
importin-β = biological target: B4; test: BLI; Octet (ForteBio); TPX2 attached to sensors, importin concentration varied; normalized amplitudes; apparent Kd; details: both partners purified
[1] = biological target: B5; test: cell-based or functional assay
[2] = biological target: B5; test: SEC-MALS; Superdex-200-increase 3.2/300 in line with a Wyatt light scattering machine; GFP-TPX2 alone, importin-α/β alone and TPX2 with importin-α/β (TPX2 printed as 5 M, importin-α/β 15 μM); details: both partners purified
GST-importin-α = GST-importin-α (Xenopus laevis); test: as above; details: both partners purified
importin-α/β heterodimer = biological target: B3; test: BLI; Octet (ForteBio); TPX2 attached to sensors, importin concentration varied; normalized amplitudes; apparent Kd; details: both partners purified

Sequence of GST-importin-α (Xenopus laevis) (chain, as listed by the source): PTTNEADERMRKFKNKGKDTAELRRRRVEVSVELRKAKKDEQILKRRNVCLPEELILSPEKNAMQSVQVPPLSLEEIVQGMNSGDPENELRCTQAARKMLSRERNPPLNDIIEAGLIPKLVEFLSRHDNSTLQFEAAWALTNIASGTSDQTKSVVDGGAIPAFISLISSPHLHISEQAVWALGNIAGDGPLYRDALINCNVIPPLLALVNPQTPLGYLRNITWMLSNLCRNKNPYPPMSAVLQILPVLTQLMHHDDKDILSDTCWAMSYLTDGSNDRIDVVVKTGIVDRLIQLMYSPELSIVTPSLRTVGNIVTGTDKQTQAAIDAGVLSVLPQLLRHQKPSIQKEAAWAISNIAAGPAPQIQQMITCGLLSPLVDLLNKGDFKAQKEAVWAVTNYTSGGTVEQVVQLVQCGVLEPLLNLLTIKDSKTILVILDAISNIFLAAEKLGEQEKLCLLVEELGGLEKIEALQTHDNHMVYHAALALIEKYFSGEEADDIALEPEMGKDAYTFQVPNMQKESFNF

B1: TPX2 N terminus (a.a. 1-480) (domain or fragment, Xenopus laevis, UniProt Q6NUF4 1-480, looked up)
chain: MEDTQDTYSYDAPSIFNFSSFHEDHNADSWFDQVTNAENIPPDQRRLSETSVNTEQNSKVEPVQTTPSKDDVSNSATHVCDVKSQSKRSSRRMSKKHRQKLLVKMKDTHLEKETAPPEYPPCKKLKGSSSKGRHAPVIKSQSTSSHHSMTSPKPKAQLTMPSTPTVLKRRNVLVKAKNSEEQELEKMQELQKEMLENLKKNEHSMKVAITGAGQPVKTFIPVTKPVDFHFKTDDRLKRTANQPEGDGYKAVDFASELRKHPPSPVQVTKGGHTVPKPFNLSKGKRKHEEASDYVSTAEQVIAFYKRTPARYHLRSRQREMEGPSPVKMIKTKLTNPKTPLLQTKGRHRPVTCKSAAELEAEELEMINQYKFKAQELDTRILEGGPVLLKKPLVKEPTKAIGFDLEIEKRIQQREKKEEIEEETFTFHSRPCPSKMLTDVVGVPLKKLLPVTVPQSPAFALKNRVRIPAQEEKQEEMVPVI
notes: TPX2, Xenopus laevis, amino acids 1-480 (disordered N-terminal region); also called N-terminal region (a.a. 1-480) of TPX2; source: recombinant, purified to >95% purity
importin-β
  Kd: 512 ± 70 nM

B2: TPX2 C terminus (a.a. 480-716) (domain or fragment, Xenopus laevis, UniProt Q6NUF4 480-716, looked up)
chain: IKATRMPHYGVPFKPKLVEQRQVDVCPFSFCDRDKERQLQKEKRLDELRKDEVPKFKAQPLPQFDNIRLPEKKVKMPTQQEPFDLEIEKRGASKLQRWQQQIQEELKQQKEMVVFKARPNTVVHQEPFVPKKENRSLTESLSGSIVQEGFELATAKRAKERQEFDKCLAETEAQKSLLEEEIRKRREEEEKEEISQLRQELVHKAKPIRKYRAVEVKASDVPLTVPRSPNFSDRFKC
notes: TPX2, Xenopus laevis, amino acids 480-716 (ordered C-terminal region); also called TPX2's C terminus; source: recombinant, purified to >95% purity
importin-β
  Kd: > 4000 nM

## B3
[1]
  inhibition of TPX2 condensation (fluorescence microscopy; TPX2 1 μM, importin-α/β in molar excess): 2 fold excess
[2]
  stoichiometry N: 1 TPX2:importin-α:importin-β

## B4
[1]
  TPX2-mediated branching microtubule nucleation in Xenopus egg cytosol (TIRF microscopy; TPX2 150 nM, importin-β 2.5x to 20x): 10 fold molar excess
GST-importin-α
  stoichiometry N: 1 importin-α:importin-β

## B5
importin-β
  Kd: 530 ± 75 nM
importin-α/β heterodimer
  Kd: 75 ± 15 nM
